Laboratory results as given in the RNAGym collection of RNA variant scans (doi:10.7554/elife.80360).

B1: Twister Ribozyme (parent)
chain: AACACUGCCAAUGCCGGUCCCAAGCCCGGAUAAAAGUGGAGGGGGCGG

Variants of: B1
Assay: self-cleavage, relative activity (ratio to wild type); higher = more cleavage; co-transcriptional

Variant | self-cleavage
A11U A35G | 0.919
A11C G29A | 0.531
A11C G29U | 0.681
A10U G48A | 0.959
A11U C25G | 0.501
U12A G43U | 0.477
U12A G43A | 0.298
U12C G45C | 0.584
U12C G45U | 0.973
A11G C19U | 0.792
A11G C19G | 0.538
U12A C27G | 0.138
U12C C14A | 0.818
U12C C14G | 0.0887
A11C G36U | 0.8
A11C G36A | 0.87
A11U G29A | 1.02
U12A G36U | 0.794
U12A G36A | 0.924
A10U G36A | 0.804
A10U G36U | 0.716
A11C G28C | 0.431
U12G C20A | 0.314
U12A A40G | 0.136

Variant | self-cleavage
U12A A40U | 0.192
U12C G38C | 0.951
U12C G38A | 0.929
A11C A32G | 0.788
A11C C15A | 0.24
A11U G47U | 0.98
A11U G47C | 0.624
U12A C15U | 1.1
U12C U37A | 0.747
U12C U37G | 0.72
U12C C15A | 0.739
U12C C15G | 0.0964
A11G G36A | 0.458
A11G G36C | 0.0984
U12C G48A | 0.952
U12C G48U | 1.03
U12C G48C | 1.18
A11C A30G | 0.739
A11C A30C | 0.719
A11G G47C | 0.528
A11G G47U | 0.861
U12A C14U | 1.05
A11C G17C | 0.0996
A11C A40U | 0.153

Variant | self-cleavage
A11C A40C | 0.14
A11C A40G | 0.12
A11G A35C | 0.903
U12A G28A | 0.912
U12A A34U | 0.984
U12A A34G | 1.02
A11U G28C | 0.801
U12G C26A | 0.589
U12C G17A | 0.532
A11G A40U | 0.126
A11G A40C | 0.214
A11C A22G | 0.168
A11C A22C | 0.929
A11U C19U | 0.933
A11U C19G | 0.616
A11U C19A | 0.386
A11U G16U | 0.544
U12G A40G | 0.163
A11U G41U | 0.889
A11C C46A | 0.908
A11C C46U | 0.736
A11C C46G | 0.917
U12C A30C | 0.761
A10U U18A | 0.546

Variant | self-cleavage
A10U U18G | 0.115
A10U U18C | 0.506
A11U A40G | 0.0881
U12A G38A | 1.08
U12A G38C | 1.11
U12C A34G | 0.821
U12C A34U | 0.886
A11U G24C | 0.0932
U12A A32U | 1.1
A11U G36A | 0.559
A11G U12A | 0.942
A11G U12G | 0.743
U12C G16A | 0.938
U12C G16U | 0.799
A11G U18G | 0.0264
A11U G13U | 0.694
A11U G13A | 0.95
A11G G41A | 0.505
A11G G41U | 0.65
U12A G48U | 1.18
U12A G48A | 0.991
U12A G48C | 1.22
A11G A34G | 0.819
A11G G45A | 0.811

Variant | self-cleavage
A11G G45U | 0.567
A10U U12A | 0.986
U12A G45U | 1.02
U12G A34C | 0.287
U12C C27A | 0.577
U12C C27G | 0.0656
A11C G41C | 0.255
A11C G41U | 0.42
A11G C27A | 0.449
A11G C27U | 0.405
U12A G13U | 0.577
A10U G29U | 0.939
U12C A23G | 0.486
A11G A22G | 0.23
A11C C20U | 0.91
A11C C20G | 0.131
U12C G43U | 0.485
U12C G43A | 0.243
U12C A22U | 0.805
U12C A22C | 0.861
U12A G39U | 0.242
U12A G39A | 0.677
U12A G39C | 0.127
U12C G24C | 0.0606

Variant | self-cleavage
U12C G24U | 0.168
A11C G45U | 0.748
A11U G38U | 0.875
A11U G38A | 1.16
A11U U31C | 1.04
A10U U37G | 0.602
A11G G24A | 0.0843
A11G G24C | 0.0551
U12C | 0.961
U12A | 1.11
U12G | 0.946
U12G G29C | 0.677
U12G G29A | 0.622
A10U G39C | 0.0863
U12C C46U | 0.957
A11U C20G | 0.17
A11U C20U | 1.08
U12A G44U | 1.05
U12A G44A | 1.04
U12A G44C | 1.19
A11C A33U | 0.853
U12C C19U | 0.951
U12G C15A | 0.614
U12G C15G | 0.115

Variant | self-cleavage
A11U A22U | 0.908
A11G A23U | 0.614
A11U C46A | 0.93
U12A A22G | 0.396
U12A A22U | 1.02
U12A G47U | 1.05
U12A G47A | 1.13
U12A A23U | 0.767
U12A G17A | 0.85
U12A G17U | 0.41
A11C A34G | 0.713
A11G G44A | 0.778
A11G G44U | 0.876
A11G C15A | 0.567
A11G G17U | 0.188
A11G G17C | 0.0792
A11G G17A | 0.372
U12A A30U | 1.15
U12A A30C | 0.893
A11U G45U | 0.953
A11U G45C | 0.733
A10U G38U | 0.863
U12A C20U | 1.15
